Reference: US20240209065A1 (SINGLOMICS BEIJING DANXU BIOPHARMACEUTICALS, published 2024)

Tests used:
[1] = target: S protein of authentic SARS-CoV-2 G614 virus (SARS-CoV-2, UniProt P0DTC2 14-1273); experiment: cell-based or functional assay
[2] = target: S protein of authentic SARS-CoV-2 G614 virus (SARS-CoV-2, UniProt P0DTC2 14-1273); experiment: cell-based or functional assay; remark: listed apart in the source

| Binder | IC50, microneutralization assay with authentic virus [1] [nM] | IC50, microneutralization assay with authentic virus [2] [nM] |
| --- | --- | --- |
| XG014 IgG (antibody, V domains shown) VH: EVQLVQSGAEVKKPGESLKISCKGSGYSFSNYWIGWVRHMPGKGLEWMGIIYPGDSDTRYSPSFQGQVTISVDTSISTAYLQWSSLKASDTAMYYCTRHQYGYNYGYFYYYIDVWGKGTTVTVSS VL: QSVLTQPPSVSAAPGQKVTISCSGSSSNIGNNPVSWYRQVPGTAPKLLIYDNNKRPSGIPDRFSGSKSGASATLGITGLQTGDEADYYCGTWHTSLSSGVFGGGTKLTVL | 0.24 | – |
| DXP-604 dimeric IgA1 (antibody) heavy: not shown light: DIQLTQSPSFLSASVGDRVTITCRASQGISSDLAWYQQKPGKAPNLLIYAASTLQSGVPSRFSGSGSGTEFTLTISSLQPEDFATYYCQQLNSDLYTFGQGTKLEIKRTVAAPSVFIFPPSDEQLKSGTASVVCLLNNFYPREAKVQWKVDNALQSGNSQESVTEQDSKDSTYSLSSTLTLSKADYEKHKVYACEVTHQGLSSPVTKSFNRGEC not shown | – | 0.11 |
| DXP-604 secretory IgA1 (antibody) heavy: not shown light: DIQLTQSPSFLSASVGDRVTITCRASQGISSDLAWYQQKPGKAPNLLIYAASTLQSGVPSRFSGSGSGTEFTLTISSLQPEDFATYYCQQLNSDLYTFGQGTKLEIKRTVAAPSVFIFPPSDEQLKSGTASVVCLLNNFYPREAKVQWKVDNALQSGNSQESVTEQDSKDSTYSLSSTLTLSKADYEKHKVYACEVTHQGLSSPVTKSFNRGEC chain 1: not shown chain 2: not shown | – | 0.04 |
